In test [1] the target is T1, S. cerevisiae TATA-box Binding Protein (yTBP) (S. cerevisiae, UniProt P13393).
T1 sequence: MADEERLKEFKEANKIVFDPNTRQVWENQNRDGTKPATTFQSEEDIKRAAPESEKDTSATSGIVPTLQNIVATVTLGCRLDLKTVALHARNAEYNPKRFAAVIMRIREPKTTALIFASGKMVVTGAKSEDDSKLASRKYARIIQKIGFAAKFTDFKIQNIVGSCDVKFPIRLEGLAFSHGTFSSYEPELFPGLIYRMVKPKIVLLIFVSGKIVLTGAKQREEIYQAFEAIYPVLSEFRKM
In words: Far Western blot of the hydroxylapatite fraction probed with 35S-labelled yTBP. The method, then: (§1) The hydroxylapatite fraction was separated by SDS-PAGE and transferred to Immobilon-P membranes, and blocked in buffer T (0.2M KOAc) containing 0.01% (v/v) NP-40 and 4% BSA for 3 hr at room temperature followed by 2 hr at […]. ^35S-labeled yTBP and hTBP and its mutant derivatives (Ha, I. et al. Genes & Dev. 7, 1021–1032 (1993)) were synthesized in rabbit reticulocyte lysate and wheat germ extract, respectively, and were diluted in incubation buffer (buffer T (0.2) plus 0.01% (v/v) NP-40 and 0.5% BSA). […] The membrane was incubated with probe at […] for 14–18 min, twice in incubation buffer without BSA for 15 min, and rinsed in buffer T (0.2) lacking glycerol for 20 sec. The membrane was air dried, and exposed directly to film for 8–24 hr.
(§2) To identify this subunit, the yTAF complex was examined for TBP binding using an immobilized protein blotting ("Far Western") assay. The hydroxylapatite fraction was fractionated by SDS-PAGE, the polypeptides transferred to nitrocellulose, and the membrane probed with ^35S-labeled yTBP.

In test [2] the target is human TATA-box Binding Protein (hTBP) (human, UniProt P20226). In words: Far Western blot of the hydroxylapatite fraction probed with 35S-labelled human TBP. The method, then: as §1, §2

B1: yeast TAF-90 (yTAF90), the 90 kD polypeptide of the yTAF complex (other)
chain: MSQKQSTNQNQNGTHQPQPVKNQRTNNAAGANSGQQPQQQSQGQSQQQGRSNGPFSASDLNRIVLEYLNKKGYHRTEAMLRAESGRTLTPQNKQSPANTKTGKFPEQSSIPPNPGKTAKPISNPTNLSSKRDAEGGIVSSGRLEGLNAPENYIRAYSMLKNWVDSSLEIYKPELSYIMYPIFIYLFLNLVAKNPVYARRFFDRFSPDFKDFHGSEINRLFSVNSIDHIKENEVASAFQSHKYRITMSKTTLNLLLYFLNENESIGGSLIISVINQHLDPNIVESVTAREKLADGIKVLSDSENGNGKQNLEMNSVPVKLGPFPKDEEFVKEIETELKIKDDQEKQLNQQTAGDNYSGANNRTLLQEYKAMNNEKFKDNTGDDDKDKIKDKIAKDEEKKESELKVDGEKKDSNLSSPARDILPLPPKTALDLKLEIQKVKESRDAIKLDNLQLALPSVCMYTFQNTNKDMSCLDFSDDCRIAAAGFQDSYIKIWSLDGSSLNNPNIALNNNDKDEDPTCKTLVGHSGTVYSTSFSPDNKYLLSGSEDKTVRLWSMDTHTALVSYKGHNHPVWDVSFSPLGHYFATASHDQTARLWSCDHIYPLRIFAGHLNDVDCVSFHPNGCYVFTGSSDKTCRMWDVSTGDSVRLFLGHTAPVISIAVCPDGRWLSTGSEDGIINVWDIGTGKRLKQMRGHGKNAIYSLSYSKEGNVLISGGADHTVRVWDLKKATTEPSAEPDEPFIGYLGDVTASINQDIKEYGRRRTVIPTSDLVASFYTKKTPVFKVKFSRSNLALAGGAFRP
For the molecule B1, the binding result in test [1] is recorded as “no binding”.

B2: yeast TAF-145 (yTAF145), the 145 kD polypeptide of the yTAF complex (other)
chain: MVKQQGSGKTNLANEDEAYEAIFGGEFGSLEIGSYIGGDEGANSKDYTEHLPDAVDFEDEDELADDDDDLPEESDANLHPAMMTMGAYDDVNENGAVLGIDSNSLNMQLPEINGDLSQQFILEDDGGTPATSNALFMGMDANEIHLATETGVLDGSGANEIGHSQLSIGGVNGNDMSINGGFIMEPDMSDGKHKKATKLDLINHEKYLLKKYFPDFEKGKILKWNKLIYRRSVPYHWHSEISRVKKPFMPLNLKFKVQQDDKRLFNSRTISYVAPIYQGKNNLLQSNSSASRRGLIHVSIDELFPIKEQQKKRKIIHDEKTISEDLLIATDDWDQEKIINQGTSSTATLADSSMTPNLKFSGGYKLKSLIEDVAEDWQWDEDMIIDAKLKESKHAELNMNDEKLLLMIEKTNNLAQQKQQLDSSNLILPLNETILQQKFNLSNDDKYQILKKTHQTKVRSTISNLNIQHSQPAINLQSPFYKVAVPRYQLRHFHRENFGSHIRPGTKIVFSKLKARKRKRDKGKDVKESFSTSQDLTIGDTAPVYLMEYSEQTPVALSKRGMANKLINYYRKANEQDTLRPKLPVGETHVLGVQDKSPFWNFGFVEPGHIVPTLYNNMIRAPVFKHDISGTDFLLTKSSGFGISNRFYLRNINHLFTVGQTFPVEEIPGPNSRKVTSMKATRLKMIIYRILNHNHSKAISIDPIAKHFPDQDYGQNRQKVKEFMKYQRDGPEKGLWRLKDDEKLLDNEAVKSLITPEQISQVESMSQGLQFQEDNEAYNFDSKLKSLEENLLPWNITKNFINSTQMRAMIQIHGVGDPTGCGEGFSFLKTSMKGGFVKSGSPSSNNNSSNKKGTNTHSYNVAQQQKAYDEEIAKTWYTHTKSLSISNPFEEMTNPDEINQTNKHVKTDRDDKKILKIVRKKRDENGIIQRQTIFIRDPRVIQGYIKIKEQDKEDVNKLLEEDTSKINNLEELEKQKKLLQLELANLEKSQQRRAARQNSKRNGGATRTENSVDNGSDLAGVTDGKAARNKGKNTTRRCATCGQIGHIRTNKSCPMYSSKDNPASPK
For the molecule B2, the binding result in test [1] and in test [2] was “binds” in each case.

The values above are taken from patent US5847077, “Fungal multisubunit protein complex critical for expression of fungal proteins” (University of Massachusetts Medical Center, dated 1998).
